Data taken from article PMC2822728 (Neuron, 2010).

Target: the molecule itself
Experiment: SDS-resistant dimers on SDS-PAGE

B1: HA-SynDIG1 (full-length mouse SynDIG1, N-terminal HA tag) (natural protein, UniProt A2ANU3 1-258, looked up)
chain: MDGIIEQKSVLVHSKISDAGKRNGLINTRNFMAESRDGLVSVYPAPQYQSHRLVASAAPGSLEGGRSEPVQQLLDPNTLQQSVESHYRPNIILYSDGVLRSWGDGVATDCCETTFIEDRSPTKDSLEYPDGKFIDLSGDDIKIHTLSYDVEEEEELQELESDYSSDTESEDNFLMMPPRDHLGLSVFSMLCCFWPLGIAAFYLSHETNKAVAKGDFHQASTSSRRALFLAVLSITIGTGIYVGVAVALIAYLSKNNHL
In the case of B1, the “stoichiometry N” value is reported as 2.
